The text below walks through data of patent US10280205B2, “Method for treating cancer with an activated T lymphocyte that selectively recognizes a cancer cell consisting of specific peptide” (immatics biotechnologies GmbH, priority 2015, dated 2019).

The assay has as its target HLA-A*02:01 (Homo sapiens, UniProt P04439, D140Y/D185E/D98H/E176V/E277Q/G131W/G231S/I119V/I121R/I166T/I218V/L300P/L318F/N151K/N90K/P208A/P217A/Q86G/Q94H/R138H/R169H/T345S). The experiment in a line: MHC binding assay: UV-ligand exchange with beta2m ELISA (exchange yield). Particulars: binding to HLA-A*02:01, β2m ELISA. An excerpt: Candidate peptides for T cell based therapies according to the present invention were further tested for their MHC binding capacity (affinity). The individual peptide-MHC complexes were produced by UV-ligand exchange, where a UV-sensitive peptide is cleaved upon UV-irradiation, and exchanged with the peptide of interest as analyzed. Only peptide candidates that can effectively bind and stabilize the peptide-receptive MHC molecules prevent dissociation of the MHC complexes. To determine the yield of the exchange reaction, an ELISA was performed based on the detection of the light chain (β2m) of stabilized MHC complexes. The assay was performed as generally described in Rodenko et al. (Rodenko et al., 2006).
96 well MAXISorp plates (NUNC) were coated over night with 2 ug/ml streptavidin in PBS at room temperature, washed 4× and blocked for 1 h at 37° C. in 2% BSA containing blocking buffer. […] Peptide-MHC monomers of the UV-exchange reaction were diluted 100 fold in blocking buffer. Samples were incubated for 1h at 37° C., washed four times, incubated with 2 ug/ml HRP conjugated anti-β2m for 1h at 37° C., washed again and detected with TMB solution that is stopped with […]. Absorption was measured at 450 nm. Candidate peptides that show a high exchange yield (preferably higher than 50%, most preferred higher than 75%) are generally preferred for a generation and production of antibodies or fragments thereof, and/or T cell receptors or fragments thereof, as they show sufficient avidity to the MHC molecules and prevent dissociation of the MHC complexes.
A general note: An ELISA detects its analyte on a solid surface through an enzyme-linked reagent.
Take “621 (VLMDRLPSLL; listed as Homo sapiens) [compound 621]”: the “Peptide exchange (MHC class I binding score, peptide exchange yield)” value (“Peptide exchange” for short) was ““++++” (≥75% = ++++)”.

Consider “33 (VLLSLLEKV; listed as Homo sapiens) [compound 33]”, for which the “Peptide exchange” value is ““++” (≥20% = ++)”.

Regarding “171 (LLLPLQILL; listed as Homo sapiens) [compound 171]”, the “Peptide exchange” value is given as ““+++” (≥50 = +++)”.

For the substance “331 (KVDTVWVNV; listed as Homo sapiens) [compound 331]”, the “Peptide exchange” value was ““+++” (≥50 = +++)”.

Consider “579 (NLMEMVAQL; listed as Homo sapiens) [compound 579]”, for which the “Peptide exchange” value is on record as ““++” (≥20% = ++)”.

With “354 (LILEGVDTV; listed as Homo sapiens) [compound 354]”, the “Peptide exchange” value is given as ““++” (≥20% = ++)”.

In the case of “602 (YLLEQIKLIEV; listed as Homo sapiens) [compound 602]”, the “Peptide exchange” value is given as ““++++” (≥75% = ++++)”.

Regarding “43 (VLSSLEINI; listed as Homo sapiens) [compound 43]”, the “Peptide exchange” value is listed as ““++” (≥20% = ++)”.

Turning to “526 (RLAEVGQYEQV; listed as Homo sapiens) [compound 526]”, the “Peptide exchange” value is ““++” (≥20% = ++)”.

In the case of “496 (FLVEKQPPQV; listed as Homo sapiens) [compound 496]”, the “Peptide exchange” value was ““+++” (≥50 = +++)”.

Take “131 (FVPPVTVFPSL; listed as Homo sapiens) [compound 131]”: the “Peptide exchange” value is reported as ““++” (≥20% = ++)”.

As to “592 (RLLSAAENFL; listed as Homo sapiens) [compound 592]”, the “Peptide exchange” value is listed as ““+++” (≥50 = +++)”.

For “269 (RVLEVGALQAV; listed as Homo sapiens) [compound 269]”, the “Peptide exchange” value was ““++” (≥20% = ++)”.

“126 (VLAYFLPEA; listed as Homo sapiens) [compound 126]”: the “Peptide exchange” value is on record as ““++++” (≥75% = ++++)”.

On to “64 (YAAPGGLIGV; listed as Homo sapiens) [compound 64]”, for which the “Peptide exchange” value is given as ““++” (≥20% = ++)”.

As for “32 (KLDDLTQDLTV; listed as Homo sapiens) [compound 32]”, the “Peptide exchange” value is listed as ““++” (≥20% = ++)”.

“558 (GLLENIPRV; listed as Homo sapiens) [compound 558]”: the “Peptide exchange” value was ““+++” (≥50 = +++)”.

As for “173 (LLDSASAGLYL; listed as Homo sapiens) [compound 173]”, the “Peptide exchange” value is ““+++” (≥50 = +++)”.

Take “116 (YHIDEEVGF; listed as Homo sapiens) [compound 116]”: the “Peptide exchange” value is listed as ““+” (≥10% = +)”.

For “372 (TMLLNIPLV; listed as Homo sapiens) [compound 372]”, the “Peptide exchange” value is given as ““++” (≥20% = ++)”.

On to “609 (ALWKQLLEL; listed as Homo sapiens) [compound 609]”, for which the “Peptide exchange” value is given as ““+++” (≥50 = +++)”.

Turning to “345 (VIWKALIHL; listed as Homo sapiens) [compound 345]”, the “Peptide exchange” value is ““+++” (≥50 = +++)”.

On to “21 (VLDELDMEL; listed as Homo sapiens) [compound 21]”, for which the “Peptide exchange” value is ““++” (≥20% = ++)”.

On to “398 (KLLEEDGTIITL; listed as Homo sapiens) [compound 398]”, for which the “Peptide exchange” value is listed as ““++” (≥20% = ++)”.

As to “596 (ALLDQTKTLAESAL; listed as Homo sapiens) [compound 596]”, the “Peptide exchange” value is given as ““+++” (≥50 = +++)”.
